Data published in FireProtDB (doi:10.1021/bi026827i).

Sequence of Cytochrome c isoform 1 K28Q, P00044 (P00044 whole entry K28Q, canonical isoform): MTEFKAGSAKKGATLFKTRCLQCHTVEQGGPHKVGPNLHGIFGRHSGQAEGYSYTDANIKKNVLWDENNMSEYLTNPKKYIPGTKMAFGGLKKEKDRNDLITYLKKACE
Sequence of Cytochrome c isoform 1 K10Q|K11Q, P00044 K10Q K11Q (P00044 whole entry K10Q/K11Q, canonical isoform): as the sequence (P00044 whole entry K28Q, canonical isoform) above, with K10Q, K11Q, Q28K counted along it
Sequence of Cytochrome c isoform 1 K17Q, P00044 (P00044 whole entry K17Q, canonical isoform): as the sequence (P00044 whole entry K28Q, canonical isoform) above, with K17Q, Q28K counted along it
Sequence of Cytochrome c isoform 1 K33Q, P00044 (P00044 whole entry K33Q, canonical isoform): as the sequence (P00044 whole entry K28Q, canonical isoform) above, with Q28K, K33Q counted along it
Sequence of Cytochrome c isoform 1 K60Q|K61Q, P00044 K60Q K61Q (P00044 whole entry K60Q/K61Q, canonical isoform): as the sequence (P00044 whole entry K28Q, canonical isoform) above, with Q28K, K60Q, K61Q counted along it

Conditions: Saccharomyces cerevisiae (strain ATCC 204508 / S288c); pH 7; 25 °C; GdnHCl; CD; Tris 20 mM; NaCl 40 mM; structure 1YCC
In the case of Cytochrome c isoform 1 K28Q, P00044, the denaturant m value is reported as 3.2 kcal/mol/M, the “denaturant midpoint (higher = more stable)” value (“denaturant midpoint” below) is reported as 0.94 M and the unfolding free energy is reported as 2.96 kcal/mol.
For Cytochrome c isoform 1 K33Q, P00044, the denaturant m value was 3.7 kcal/mol/M, the “denaturant midpoint” value was 1.09 M and the unfolding free energy was 4.04 kcal/mol.
For Cytochrome c isoform 1 K17Q, P00044, the denaturant m value was 5.33 kcal/mol/M, the “denaturant midpoint” value was 0.64 M and the unfolding free energy was 3.37 kcal/mol.
For “Cytochrome c isoform 1 K10Q|K11Q, P00044 K10Q K11Q”, the denaturant m value was 3.06 kcal/mol/M, the “denaturant midpoint” value was 1.05 M and the unfolding free energy was 3.2 kcal/mol.
In the case of “Cytochrome c isoform 1 K60Q|K61Q, P00044 K60Q K61Q”, the denaturant m value is reported as 3.06 kcal/mol/M, the “denaturant midpoint” value is reported as 0.99 M and the unfolding free energy is reported as 3.04 kcal/mol.
